These are literature values, as cited in US9180102B2, “Methods for fabricating nano and microparticles for drug delivery” (BOARD OF REGENTS, THE UNIVERSITY OF TEXAS SYSTEM, priority 2005, dated 2015).

The series concerns the target Cathepsin B (Homo sapiens, UniProt P07858). The conditions noted are these: degradation of peptide spacer by lysosomal protease.

Take “Gly-Phe-Leu-Gly (GFLG; printed: Gly-Phe-Leu-Gly)”: the “sensitivity of peptide spacer sequence to Cathepsin B” value was “especially sensitive”.
